Where two headings read alike, the source gives them in different places.
How the values were obtained:
physchem = format: physicochemical
Protocol: Briefly, the radiopharmaceuticals were prepared and purified with Sep-Pak-C18 cartridges and then dissolved in a mixed solution of 5 mL n-octanol and 5 mL PBS. After vortexing for 1 h, the mixture was centrifuged at 10,000 rpm for 10 min. Samples (100 μL, n = 4) from the n-octanol and PBS components were collected and counted using a γ-counter. The […] were calculated as the logarithm of the n-octanol/PBS ratio.

[1] = set-up: species or system KM mice; details: mouse, in vivo, iv
Protocol: (§1) Female KM mice were randomly divided into three groups (n = 5). […] Blood samples obtained from the canthus vein were collected at different time points post injection (p.i.), weighed, and evaluated using a γ-counter. The results are presented as the percentage injected activity per gram (%IA/g). Nonlinear regression (curve fit) followed by two phase decay was performed using GraphPad Prism version 9.0.0 for Windows, GraphPad Software, San Diego, CA, USA, www.graphpad.com (accessed on 22 May 2022). And then the half-lives values were calculated and determined.

[2] = set-up: species or system C57BL/6 mice; details: mouse, in vivo
Protocol: as §1, with “determined. Blood clearance studies were performed in normal KM mice. […] Blood clearance studies were also performed in C57BL/6 mice.” for “determined.”

in vivo = details: C57BL/6, mouse, 0.74 MBq, total radioactivity
Protocol: (§2) Mice bearing MC38 xenografts were randomly divided into 10 groups (n = 4). The mice in five groups were administered 0.74 MBq/20 µCi of ^177Lu-Palm-3PRGD2 and sacrificed at 1, 4, 12, 24, and 72 h p.i. The mice on one group was injected with 0.74 MBq/20 µCi of ^177Lu-Palm-3PRGD2 and 500 μg (242 nmol) 3PRGD2 as a blocking agent and sacrificed at 1 h p.i. […] Tumors and major organs were harvested, weighed and measured for radioactivity using a γ-counter. The organ uptake was calculated as the percentage injected activity per gram (%IA/g). The effective absorbed dose in humans estimated from mouse biodistribution data by using a dedicated software (OLINDA 1.0).

[3] = cited from earlier work
Excerpt: This may be caused by several factors: first, palmitic acid can reversibly bind to albumin to prolong the blood retention time and reduce the elimination of peptides; second, ^177Lu-palm-3PRGD2 is amphiphilic and may self-assemble to form tiny nanoparticles (possibly nanospheres or nanofibers) with larger molecular sizes, resulting in lo ...

MC38 tumor-bearing mice = test: in vivo; details: mouse
Protocol: as §2

[4] = reportedly; cited from earlier work
Excerpt: Albumin makes up approximately 55–60% of serum proteins, and its biological half-life is reportedly 19 days, which makes it possible to leverage the long circulation half-life of albumin to produce long-acting therapeutics.

[5] = Tumor-to-tissue ratio, Intestine

## N=C(N)NCCC[C@@H]1NC(=O)[C@H](CCCCNC(=O)CCOCCOCCOCCOCCNC(=O)CC[C@H](NC(=O)CCOCCOCCOCCOCCNC(=O)CN2CCN(CC(=O)O)CCN(CC(=O)O)CCN(CC(=O)O)CC2)C(=O)NCCOCCOCCOCCOCCC(=O)NCCCC[C@@H]2NC(=O)[C@@H](Cc3ccccc3)NC(=O)[C@H](CC(=O)O)NC(=O)CNC(=O)[C@H](CCCNC(=N)N)NC2=O)NC(=O)[C@@H](Cc2ccccc2)NC(=O)[C@H](CC(=O)O)NC(=O)CNC1=O [^177Lu-3PRGD2, [^177Lu]Lu-DOTA-3PRGD2, metal not drawn]
physchem
  logD: -4.05 ± 0.14
[1]
  Half-Life (T1/2α): 1.94 min
  Half-Life (T1/2β): 11.81 min
[2]
  Half-Life (T1/2α): 1.06 min
  Half-Life (T1/2β): 14.54 min
In vivo; Blood uptake
  tissue uptake at 4 h: 0.42 ± 0.26 %ID/g
  tissue uptake at 12 h: 0.32 %ID/g
In vivo; Bone uptake
  tissue uptake at 4 h: 1.41 %ID/g
  tissue uptake at 12 h: 1.46 %ID/g
In vivo; Brain uptake
  tissue uptake at 4 h: 0.09 %ID/g
  tissue uptake at 12 h: 0.11 %ID/g
In vivo; Heart uptake
  tissue uptake at 4 h: 0.75 %ID/g
  tissue uptake at 12 h: 0.63 %ID/g
In vivo; Intestine uptake
  tissue uptake at 4 h: 9.85 %ID/g
  tissue uptake at 12 h: 7.97 %ID/g
In vivo; Kidney uptake
  tissue uptake at 12 h: 4.48 %ID/g
In vivo; Liver uptake
  tissue uptake at 4 h: 2.95 %ID/g
  tissue uptake at 12 h: 1.93 %ID/g
In vivo; Lung uptake
  tissue uptake at 4 h: 1.73 %ID/g
  tissue uptake at 12 h: 1.46 %ID/g
In vivo; Muscle uptake
  tissue uptake at 4 h: 0.52 %ID/g
  tissue uptake at 12 h: 0.64 %ID/g
In vivo; Spleen uptake
  tissue uptake at 4 h: 2.65 %ID/g
  tissue uptake at 12 h: 1.89 %ID/g
In vivo; Stomach uptake
  tissue uptake at 4 h: 2.96 %ID/g
  tissue uptake at 12 h: 2.39 %ID/g
In vivo; Tumor uptake
  tissue uptake at 4 h: 6.22 %ID/g
  tissue uptake at 12 h: 4.11 %ID/g
In vivo; Tumor-to-tissue ratio, Blood
  tissue to tissue ratio at 4 h: 20.3
  tissue to tissue ratio at 12 h: 14.2
In vivo; Tumor-to-tissue ratio, Bone
  tissue to tissue ratio at 4 h: 4.41
  tissue to tissue ratio at 12 h: 2.82
In vivo; Tumor-to-tissue ratio, Brain
  tissue to tissue ratio at 4 h: 68.7
  tissue to tissue ratio at 12 h: 39.9
In vivo; Tumor-to-tissue ratio, Heart
  tissue to tissue ratio at 4 h: 8.31
  tissue to tissue ratio at 12 h: 6.53
In vivo; [5]
  tissue to tissue ratio at 4 h: 0.66
  tissue to tissue ratio at 12 h: 0.52
In vivo; Tumor-to-tissue ratio, Liver
  tissue to tissue ratio at 4 h: 2.11
  tissue to tissue ratio at 12 h: 2.13
In vivo; Tumor-to-tissue ratio, Lung
  tissue to tissue ratio at 4 h: 3.6
  tissue to tissue ratio at 12 h: 2.84
In vivo; Tumor-to-tissue ratio, Muscle
  tissue to tissue ratio at 4 h: 12
  tissue to tissue ratio at 12 h: 6.6
In vivo; Tumor-to-tissue ratio, Spleen
  tissue to tissue ratio at 4 h: 2.36
  tissue to tissue ratio at 12 h: 2.22
In vivo; Tumor-to-tissue ratio, Stomach
  tissue to tissue ratio at 4 h: 2.1
  tissue to tissue ratio at 12 h: 1.72
In vivo; in vivo
  tissue to tissue ratio at 4 h: 1.27
  tissue to tissue ratio at 12 h: 0.92
[3]
  Effective absorbed dose: 1.35 × 10^−2 mSv/MBq

## CCCCCCCCCCCCCCCC(=O)N[C@@H](CCC(=O)NCCCC[C@H](NC(=O)CN1CCN(CC(=O)O)CCN(CC(=O)O)CCN(CC(=O)O)CC1)C(=O)O)C(=O)O [^177Lu-Palm, [^177Lu]Lu-DOTA-Palm, metal not drawn]
[1]
  Half-Life (T1/2α): 3.33 min
  Half-Life (T1/2β): 29.82 min
MC38 tumor-bearing mice
  Tumor-to-tissue ratio, Brain: 14.69

## Albumin
[4]
  Biological half-life: 19 days
